Results reported in patent publication US20250002588A1 (DIAGONAL THERAPEUTICS, published 2025).

Target: ALK-1/BMPR-2 receptor pair of the PathHunter U2Os dimerization cells (DiscoverX 93-0962C3) (UniProt P37023 22-503; Q13873 27-1038)
Assay: cell-based or functional assay

ALK-1/BMPR-2 receptor pair of the PathHunter U2Os dimerization cells (DiscoverX 93-0962C3), sequence (P37023 22-503, chain 1 of 2): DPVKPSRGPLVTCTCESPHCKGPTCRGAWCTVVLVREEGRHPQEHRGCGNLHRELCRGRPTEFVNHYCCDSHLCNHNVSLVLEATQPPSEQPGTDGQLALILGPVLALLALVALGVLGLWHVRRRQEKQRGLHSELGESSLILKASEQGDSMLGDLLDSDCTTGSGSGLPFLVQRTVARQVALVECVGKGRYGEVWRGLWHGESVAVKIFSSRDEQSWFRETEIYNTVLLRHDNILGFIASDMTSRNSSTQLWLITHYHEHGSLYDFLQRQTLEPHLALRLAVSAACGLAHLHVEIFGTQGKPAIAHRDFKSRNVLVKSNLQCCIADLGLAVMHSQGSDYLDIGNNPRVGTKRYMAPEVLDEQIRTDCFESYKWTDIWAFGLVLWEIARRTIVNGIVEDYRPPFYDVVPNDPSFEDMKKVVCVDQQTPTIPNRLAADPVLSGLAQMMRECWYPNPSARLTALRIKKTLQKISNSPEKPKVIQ
ALK-1/BMPR-2 receptor pair of the PathHunter U2Os dimerization cells (DiscoverX 93-0962C3), sequence (Q13873 27-1038, chain 2 of 2): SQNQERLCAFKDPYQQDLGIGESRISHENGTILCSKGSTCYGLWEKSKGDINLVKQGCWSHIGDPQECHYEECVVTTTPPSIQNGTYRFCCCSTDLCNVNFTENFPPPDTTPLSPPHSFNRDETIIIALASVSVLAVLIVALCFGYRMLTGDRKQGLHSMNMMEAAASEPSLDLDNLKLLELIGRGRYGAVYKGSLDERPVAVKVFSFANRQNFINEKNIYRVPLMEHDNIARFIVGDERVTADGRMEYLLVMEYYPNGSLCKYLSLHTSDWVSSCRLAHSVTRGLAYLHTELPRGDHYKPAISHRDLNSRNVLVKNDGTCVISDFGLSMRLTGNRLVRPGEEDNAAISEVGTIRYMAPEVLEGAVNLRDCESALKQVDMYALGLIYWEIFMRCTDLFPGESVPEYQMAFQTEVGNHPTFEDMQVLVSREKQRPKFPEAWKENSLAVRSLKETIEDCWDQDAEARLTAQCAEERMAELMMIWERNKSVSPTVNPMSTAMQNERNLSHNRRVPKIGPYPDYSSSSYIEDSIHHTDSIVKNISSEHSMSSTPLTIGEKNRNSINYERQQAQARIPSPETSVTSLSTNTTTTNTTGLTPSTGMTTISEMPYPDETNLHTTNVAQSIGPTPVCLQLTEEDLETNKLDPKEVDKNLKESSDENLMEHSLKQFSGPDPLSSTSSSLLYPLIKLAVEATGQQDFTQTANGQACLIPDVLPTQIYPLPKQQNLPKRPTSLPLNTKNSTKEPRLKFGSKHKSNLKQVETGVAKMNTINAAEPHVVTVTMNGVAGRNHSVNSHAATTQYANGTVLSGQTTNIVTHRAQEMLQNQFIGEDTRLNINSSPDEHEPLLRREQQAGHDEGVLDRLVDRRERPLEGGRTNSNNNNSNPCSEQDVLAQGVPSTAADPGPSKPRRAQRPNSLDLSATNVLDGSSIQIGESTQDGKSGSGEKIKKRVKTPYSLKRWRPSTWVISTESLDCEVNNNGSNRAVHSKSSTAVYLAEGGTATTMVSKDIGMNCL

| Binder | % Emax BMP9 | EC50 | Emax (RLU) |
| --- | --- | --- | --- |
| DGL274 (bispecific antibody) chain 1: EVQLLESGGGLVQPGGSLRLSCAASGFTFSIYAMSWVRQAPGKGLEWVSAISGSGGSTYYADSVKGRFTISRDNSKNTLYLQMNSLRAEDTAVYYCARDFDYWGQGTLVTVTSSGGGGSGGGGSGGGGSQSVLTQPPSASGTPGQRVTISCSGSSSNIGSNYVYWYQQLPGTAPKLLIYGNINRPSGVPDRFSGSKSGTSASLAISGLRSEDEADYYCAAWDDSLNGRVFGGGTKLTVLPLAPCPPCPAPEAAGAPSVFLFPPKPKDTLMISRTPEVTCVVVDVSHEDPEVKFNWYVDGVEVHNAKTKPREEQYNSTYRVVSVLTVLHQDWLNGKEYKCKVSNKALPAPIEKTISKAKGQPREPQVYTLPPCRDELTKNQVSLWCLVKGFYPSDIAVEWESNGQPENNYKTTPPVLDSDGSFFLYSKLTVDKSRWQQGNVFSCSVMHEALHNHYTQKSLSLSPGEPEA chain 2: EVQLLESGGGLVQPGGSLRLSCAASGFTFSNAWMNWVRQAPGKGLEWVSSISSSSSYIYYADSVKGRFTISRDNSKNTLYLQMNSLRAEDTAVYYCARAVAAGGMFWGLDQWGQGTLVTVTSSGGGGSGGGGSGGGGSQSVLTQPPSASGTPGQRVTISCSGSRSNIGSNSVHWYQQLPGTAPKLLIYGNSNRPSGVPDRFSGSKSGTSASLAISGLRSEDEADYYCQSYDSSLNDHVVFGGGTKLTVLPLAPCPPCPAPEAAGAPSVFLFPPKPKDTLMISRTPEVTCVVVDVSHEDPEVKFNWYVDGVEVHNAKTKPREEQYNSTYRVVSVLTVLHQDWLNGKEYKCKVSNKALPAPIEKTISKAKGQPREPQVCTLPPSRDELTKNQVSLSCAVKGFYPSDIAVEWESNGQPENNYKTTPPVLDSDGSFFLVSKLTVDKSRWQQGNVFSCSVMHEALHNHYTQKSLSLSPGWSHPQFEK | 47% | 1.7 nM | 1.25e+06 RLU |
| DGL273 (bispecific antibody) chain 1: EVQLLESGGGLVQPGGSLRLSCAASGFTFSIYAMSWVRQAPGKGLEWVSAISGSGGSTYYADSVKGRFTISRDNSKNTLYLQMNSLRAEDTAVYYCARDFDYWGQGTLVTVTSSGGGGSGGGGSGGGGSQSVLTQPPSASGTPGQRVTISCSGSSSNIGSNYVYWYQQLPGTAPKLLIYGNINRPSGVPDRFSGSKSGTSASLAISGLRSEDEADYYCAAWDDSLNGRVFGGGTKLTVLCPPCPAPEAAGAPSVFLFPPKPKDTLMISRTPEVTCVVVDVSHEDPEVKFNWYVDGVEVHNAKTKPREEQYNSTYRVVSVLTVLHQDWLNGKEYKCKVSNKALPAPIEKTISKAKGQPREPQVYTLPPCRDELTKNQVSLWCLVKGFYPSDIAVEWESNGQPENNYKTTPPVLDSDGSFFLYSKLTVDKSRWQQGNVFSCSVMHEALHNHYTQKSLSLSPGEPEA chain 2: EVQLLESGGGLVQPGGSLRLSCAASGFTFSNAWMNWVRQAPGKGLEWVSSISSSSSYIYYADSVKGRFTISRDNSKNTLYLQMNSLRAEDTAVYYCARAVAAGGMFWGLDQWGQGTLVTVTSSGGGGSGGGGSGGGGSQSVLTQPPSASGTPGQRVTISCSGSRSNIGSNSVHWYQQLPGTAPKLLIYGNSNRPSGVPDRFSGSKSGTSASLAISGLRSEDEADYYCQSYDSSLNDHVVFGGGTKLTVLCPPCPAPEAAGAPSVFLFPPKPKDTLMISRTPEVTCVVVDVSHEDPEVKFNWYVDGVEVHNAKTKPREEQYNSTYRVVSVLTVLHQDWLNGKEYKCKVSNKALPAPIEKTISKAKGQPREPQVCTLPPSRDELTKNQVSLSCAVKGFYPSDIAVEWESNGQPENNYKTTPPVLDSDGSFFLVSKLTVDKSRWQQGNVFSCSVMHEALHNHYTQKSLSLSPGWSHPQFEK | 46% | 4.2 nM | 1.22e+06 RLU |
| DGL268 (bispecific antibody) chain 1: EVQLLESGGGLVQPGGSLRLSCAASGFTFSIYAMSWVRQAPGKGLEWVSAISGSGGSTYYADSVKGRFTISRDNSKNTLYLQMNSLRAEDTAVYYCARDFDYWGQGTLVTVTSSGGGGSGGGGSGGGGSQSVLTQPPSASGTPGQRVTISCSGSSSNIGSNYVYWYQQLPGTAPKLLIYGNINRPSGVPDRFSGSKSGTSASLAISGLRSEDEADYYCAAWDDSLNGRVFGGGTKLTVLGGGGSGGGGSGGGGSGVECPPCPAPPVAGPSVFLFPPKPKDTLMISRTPEVTCVVVDVSHEDPEVQFNWYVDGVEVHNAKTKPREEQFNSTFRVVSVLTVVHQDWLNGKEYKCKVSNKGLPAPIEKTISKTKGQPREPQVYTLPPCREEMTKNQVSLWCLVKGFYPSDIAVEWESNGQPENNYKTTPPMLDSDGSFFLYSKLTVDKSRWQQGNVFSCSVMHEALHNHYTQKSLSLSPG chain 2: EVQLLESGGGLVQPGGSLRLSCAASGFTFSIYAMSWVRQAPGKGLEWVSAISGSGGSTYYADSVKGRFTISRDNSKNTLYLQMNSLRAEDTAVYYCARDFDYWGQGTLVTVTSSGGGGSGGGGSGGGGSQSVLTQPPSASGTPGQRVTISCSGSSSNIGSNYVYWYQQLPGTAPKLLIYGNINRPSGVPDRFSGSKSGTSASLAISGLRSEDEADYYCAAWDDSLNGRVFGGGTKLTVLGGGGSGGGGSGGGGSGVECPPCPAPPVAGPSVFLFPPKPKDTLMISRTPEVTCVVVDVSHEDPEVQFNWYVDGVEVHNAKTKPREEQFNSTFRVVSVLTVVHQDWLNGKEYKCKVSNKGLPAPIEKTISKTKGQPREPQVCTLPPSREEMTKNQVSLSCAVKGFYPSDIAVEWESNGQPENNYKTTPPMLDSDGSFFLVSKLTVDKSRWQQGNVFSCSVMHEALHNHYTQKSLSLSPG | 1% | 0.1 nM | 35200 RLU |
| DGL269 (bispecific antibody) chain 1: EVQLLESGGGLVQPGGSLRLSCAASGFTFSNAWMNWVRQAPGKGLEWVSSISSSSSYIYYADSVKGRFTISRDNSKNTLYLQMNSLRAEDTAVYYCARAVAAGGMFWGLDQWGQGTLVTVTSSGGGGSGGGGSGGGGSQSVLTQPPSASGTPGQRVTISCSGSRSNIGSNSVHWYQQLPGTAPKLLIYGNSNRPSGVPDRFSGSKSGTSASLAISGLRSEDEADYYCQSYDSSLNDHVVFGGGTKLTVLGGGGSGGGGSGGGGSGVECPPCPAPPVAGPSVFLFPPKPKDTLMISRTPEVTCVVVDVSHEDPEVQFNWYVDGVEVHNAKTKPREEQFNSTFRVVSVLTVVHQDWLNGKEYKCKVSNKGLPAPIEKTISKTKGQPREPQVYTLPPCREEMTKNQVSLWCLVKGFYPSDIAVEWESNGQPENNYKTTPPMLDSDGSFFLYSKLTVDKSRWQQGNVFSCSVMHEALHNHYTQKSLSLSPG chain 2: EVQLLESGGGLVQPGGSLRLSCAASGFTFSNAWMNWVRQAPGKGLEWVSSISSSSSYIYYADSVKGRFTISRDNSKNTLYLQMNSLRAEDTAVYYCARAVAAGGMFWGLDQWGQGTLVTVTSSGGGGSGGGGSGGGGSQSVLTQPPSASGTPGQRVTISCSGSRSNIGSNSVHWYQQLPGTAPKLLIYGNSNRPSGVPDRFSGSKSGTSASLAISGLRSEDEADYYCQSYDSSLNDHVVFGGGTKLTVLGGGGSGGGGSGGGGSGVECPPCPAPPVAGPSVFLFPPKPKDTLMISRTPEVTCVVVDVSHEDPEVQFNWYVDGVEVHNAKTKPREEQFNSTFRVVSVLTVVHQDWLNGKEYKCKVSNKGLPAPIEKTISKTKGQPREPQVCTLPPSREEMTKNQVSLSCAVKGFYPSDIAVEWESNGQPENNYKTTPPMLDSDGSFFLVSKLTVDKSRWQQGNVFSCSVMHEALHNHYTQKSLSLSPG | 0% | – | -8300 RLU |
| DGL270 (bispecific antibody) chain 1: EVQLLESGGGLVQPGGSLRLSCAASGFTFSSYAMSWVRQAPGKGLEWVANINQDGSEKNYVDSMRGRFTISRDNSKNTLYLQMNSLRAEDTAVYYCAREFDYWGQGTLVTVTSSGGGGSGGGGSGGGGSQSVLAQPPSASGTPGQRVTISCSGSSSNIGSNYVYWYQQLPGTAPKLLIYGNNKRPSGVPDRFSGSKSGTSASLAISGLRSEDEADYYCAAWDDSLNGRVFGGGTKLTVLGGGGSGGGGSGGGGSGVECPPCPAPPVAGPSVFLFPPKPKDTLMISRTPEVTCVVVDVSHEDPEVQFNWYVDGVEVHNAKTKPREEQFNSTFRVVSVLTVVHQDWLNGKEYKCKVSNKGLPAPIEKTISKTKGQPREPQVYTLPPCREEMTKNQVSLWCLVKGFYPSDIAVEWESNGQPENNYKTTPPMLDSDGSFFLYSKLTVDKSRWQQGNVFSCSVMHEALHNHYTQKSLSLSPG chain 2: EVQLLESGGGLVQPGGSLRLSCAASGFTFSSYAMSWVRQAPGKGLEWVANINQDGSEKNYVDSMRGRFTISRDNSKNTLYLQMNSLRAEDTAVYYCAREFDYWGQGTLVTVTSSGGGGSGGGGSGGGGSQSVLAQPPSASGTPGQRVTISCSGSSSNIGSNYVYWYQQLPGTAPKLLIYGNNKRPSGVPDRFSGSKSGTSASLAISGLRSEDEADYYCAAWDDSLNGRVFGGGTKLTVLGGGGSGGGGSGGGGSGVECPPCPAPPVAGPSVFLFPPKPKDTLMISRTPEVTCVVVDVSHEDPEVQFNWYVDGVEVHNAKTKPREEQFNSTFRVVSVLTVVHQDWLNGKEYKCKVSNKGLPAPIEKTISKTKGQPREPQVCTLPPSREEMTKNQVSLSCAVKGFYPSDIAVEWESNGQPENNYKTTPPMLDSDGSFFLVSKLTVDKSRWQQGNVFSCSVMHEALHNHYTQKSLSLSPG | 0% | – | 9200 RLU |
| DGL271 (bispecific antibody) chain 1: EVQLLESGGGLVQPGGSLRLSCAASGFTFSDYYMTWIRQAPGKGLEWVSSISGGSTYYADSRKGRFTISRDNSENTLYLQMNSLRAEDTAVYYCARDFGVAGWFGQYGMDVWGQGTLVTVSSGGGGSGGGGSGGGGSQSVLTQPPSASGTPGQRVTISCTGSSSNIGAGYDVHWYQQLPGTAPKLLIYRSNQRPSGVPDRFSGSKSGTSASLAISGLRSEDEADYYCSSYAGNYNLVFGGGTKLTVLGGGGSGGGGSGGGGSGVECPPCPAPPVAGPSVFLFPPKPKDTLMISRTPEVTCVVVDVSHEDPEVQFNWYVDGVEVHNAKTKPREEQFNSTFRVVSVLTVVHQDWLNGKEYKCKVSNKGLPAPIEKTISKTKGQPREPQVYTLPPCREEMTKNQVSLWCLVKGFYPSDIAVEWESNGQPENNYKTTPPMLDSDGSFFLYSKLTVDKSRWQQGNVFSCSVMHEALHNHYTQKSLSLSPG chain 2: EVQLLESGGGLVQPGGSLRLSCAASGFTFSDYYMTWIRQAPGKGLEWVSSISGGSTYYADSRKGRFTISRDNSENTLYLQMNSLRAEDTAVYYCARDFGVAGWFGQYGMDVWGQGTLVTVSSGGGGSGGGGSGGGGSQSVLTQPPSASGTPGQRVTISCTGSSSNIGAGYDVHWYQQLPGTAPKLLIYRSNQRPSGVPDRFSGSKSGTSASLAISGLRSEDEADYYCSSYAGNYNLVFGGGTKLTVLGGGGSGGGGSGGGGSGVECPPCPAPPVAGPSVFLFPPKPKDTLMISRTPEVTCVVVDVSHEDPEVQFNWYVDGVEVHNAKTKPREEQFNSTFRVVSVLTVVHQDWLNGKEYKCKVSNKGLPAPIEKTISKTKGQPREPQVCTLPPSREEMTKNQVSLSCAVKGFYPSDIAVEWESNGQPENNYKTTPPMLDSDGSFFLVSKLTVDKSRWQQGNVFSCSVMHEALHNHYTQKSLSLSPG | 2% | – | 55900 RLU |
